Experimental data published in US20260139048A1 (NANJING LEGEND BIOTECH, published 2026).
One block for each binder: values may come before it.

How the values were obtained:
[1] = molecular target: T1, TIGIT on TIGIT-over expressing NFAT-Luc/Jurkat effector cells (GenScript reporter cell line) (UniProt Q495A1 22-244, limits assumed); assay: cell-based or functional assay
T1 sequence (looked up): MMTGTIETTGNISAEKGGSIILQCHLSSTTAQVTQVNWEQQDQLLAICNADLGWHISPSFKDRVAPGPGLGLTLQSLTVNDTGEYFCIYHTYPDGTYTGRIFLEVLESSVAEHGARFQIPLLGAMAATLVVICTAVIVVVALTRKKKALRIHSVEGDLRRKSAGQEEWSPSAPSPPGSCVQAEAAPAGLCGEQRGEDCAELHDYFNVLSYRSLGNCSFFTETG

[2] = molecular target: T2, human TIGIT expressed on CHO-K1 cells (human, UniProt Q495A1 22-244); assay: flow cytometry on CHO-K1 cells expressing human TIGIT
T2 construct: whole, on cells; also called human TIGIT-CHO-K1 cells; human TIGIT over-expressing cell line
T2 sequence (looked up): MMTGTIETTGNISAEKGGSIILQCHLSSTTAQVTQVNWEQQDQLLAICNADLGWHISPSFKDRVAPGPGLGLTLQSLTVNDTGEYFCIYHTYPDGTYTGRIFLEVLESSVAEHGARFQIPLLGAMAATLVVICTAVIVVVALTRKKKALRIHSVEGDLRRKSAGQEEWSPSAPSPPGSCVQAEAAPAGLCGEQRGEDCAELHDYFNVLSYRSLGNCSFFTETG

[3] = molecular target: T3, cynomolgus TIGIT expressed on CHO-K1 cells (cynomolgus, UniProt A0A7N9I9V4 89-312); assay: flow cytometry on CHO-K1 cells expressing cynomolgus TIGIT
T3 construct: whole, on cells; also called cynomolgus TIGIT over-expressing cell line
T3 sequence (A0A7N9I9V4 entry or part of it): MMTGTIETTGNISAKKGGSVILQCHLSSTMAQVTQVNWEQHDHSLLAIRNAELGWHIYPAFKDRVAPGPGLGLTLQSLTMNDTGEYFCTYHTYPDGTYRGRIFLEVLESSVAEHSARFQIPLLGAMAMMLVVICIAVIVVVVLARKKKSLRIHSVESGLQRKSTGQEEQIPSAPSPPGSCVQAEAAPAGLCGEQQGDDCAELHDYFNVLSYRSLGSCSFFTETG

His-tagged human TIGIT [4] = molecular target: T4, His-tagged human TIGIT (human, UniProt Q495A1 22-141); assay: SPR (Biacore T200), antibody captured, His-tagged TIGIT analyte
T4 construct: SPR analyte; also called human TIGIT protein; not shown: His tag
T4 sequence: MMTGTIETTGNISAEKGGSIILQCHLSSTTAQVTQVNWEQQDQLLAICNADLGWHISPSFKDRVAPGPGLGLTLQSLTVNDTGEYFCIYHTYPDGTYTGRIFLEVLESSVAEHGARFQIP

[5] = molecular target: T5, His-tagged cynomolgus TIGIT (cynomolgus, UniProt A0A7N9I9V4 89-209); assay: as above
T5 construct: SPR analyte; also called cynomolgus TIGIT protein; not shown: His tag
T5 sequence (A0A7N9I9V4 entry or part of it): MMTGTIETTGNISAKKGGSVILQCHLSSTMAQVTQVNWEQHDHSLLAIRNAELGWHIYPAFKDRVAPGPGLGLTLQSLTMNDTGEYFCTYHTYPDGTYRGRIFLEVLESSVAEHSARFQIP

His-tagged human TIGIT [6] = molecular target: T4, His-tagged human TIGIT; assay: SPR experiment 4, IgG from HEK293 supernatant captured
[7] = molecular target: T2, human TIGIT expressed on CHO-K1 cells; assay: flow cytometry competition: biotinylated CD155-Fc on human TIGIT-CHO-K1 cells
His-tagged human TIGIT [8] = molecular target: T4, His-tagged human TIGIT; assay: SPR experiment 1, IgG from HEK293 supernatant captured
His-tagged human TIGIT [9] = molecular target: T4, His-tagged human TIGIT; assay: SPR experiment 2, IgG from HEK293 supernatant captured
His-tagged human TIGIT [10] = molecular target: T4, His-tagged human TIGIT; assay: SPR experiment 3, IgG from HEK293 supernatant
His-tagged human TIGIT [11] = molecular target: T4, His-tagged human TIGIT; assay: SPR experiment 3, IgG from HEK293 supernatant captured

B1: huTIGIT-3-1 (antibody, human IgG1, kappa, V domains shown)
VH: EVQLVESGGGLVQPGGSLRLSCAASGFTFSSYGMSWVRQAPGKGLELVATIKSSGGSTNLADSVKGRFTISRDNSKNTLYLQMNSLRAEDTAVYYCVRGYFDYWGQGTTVTVSS
VL: DIQMTQSPSSLSASVGDRVTITCRASQDIKTALAWYQQKPGKSPKLLIYWASTRQSGVPSRFSGSGSGTDFTLTISSLQPEDVATYYCQQYYSTPYTFGGGTKVEIKR
notes: Humanized IgG; also called 3VH3.M4 + 3VL4.M6
- Bottom (RLU) [1]: 54400 RLU
- EC50 [1]: 4.92 nM
- Top (RLU) [1]: 152000 RLU
- EC50 [2]: 0.511 nM
- EC50 [3]: 1.72 nM
- Kd (His-tagged human TIGIT [4]): 0.54 nM
- koff (His-tagged human TIGIT [4]): 0.00031 s⁻¹
- kon (His-tagged human TIGIT [4]): 570000 M⁻¹ s⁻¹
- Kd [5]: 18 nM
- koff [5]: 0.0022 s⁻¹
- kon [5]: 120000 M⁻¹ s⁻¹
- Kd (His-tagged human TIGIT [6]): 0.56 nM
- koff (His-tagged human TIGIT [6]): 0.00046 s⁻¹
- kon (His-tagged human TIGIT [6]): 820000 M⁻¹ s⁻¹
- IC50 [7]: 0.502 nM

B2: reshaped TIGIT-3 antibody 3VH3 + 3VL (antibody, V domains shown)
VH: EVQLVESGGGLVQPGGSLRLSCAASGFTFSSYGMSWVRQAPGKGLELVATIKSDGGSTNLPDSVKGRFTISRDNSKNTLYLQMNSLRAEDTAVYYCVRGYFDYWGQGTTVTVSS
VL: DIVMTQSHKFMSTSVGDRVSITCKASQDVKTAVAWYQQKPGQSPKLLIYWSSTRHTGVPDRFTGSRSLTDHTLTISSVQAEDLALYYCQQYYSTPYTFGGGTKLELK
notes: Full-length IgG, tested as HEK293 supernatant
- Kd (His-tagged human TIGIT [8]): 0.25 nM
- koff (His-tagged human TIGIT [8]): 0.00015 s⁻¹
- kon (His-tagged human TIGIT [8]): 580000 M⁻¹ s⁻¹
- Kd (His-tagged human TIGIT [9]): 0.48 nM
- koff (His-tagged human TIGIT [9]): 0.00025 s⁻¹
- kon (His-tagged human TIGIT [9]): 520000 M⁻¹ s⁻¹

B3: reshaped TIGIT-3 antibody 3VH3.M4 + 3VL5.M6 (antibody, V domains shown)
VH: EVQLVESGGGLVQPGGSLRLSCAASGFTFSSYGMSWVRQAPGKGLELVATIKSSGGSTNLADSVKGRFTISRDNSKNTLYLQMNSLRAEDTAVYYCVRGYFDYWGQGTTVTVSS
VL: DIQMTQSPSSLSASVGDRVTITCRASQDIKTALAWYQQKPGQSPKLLIYWASTRQSGVPSRFSGSGSGTDFTLTISSLQPEDVATYYCQQYYSTPYTFGGGTKVEIK
notes: as for B2
- Kd (His-tagged human TIGIT [6]): 0.5 nM
- koff (His-tagged human TIGIT [6]): 0.00043 s⁻¹
- kon (His-tagged human TIGIT [6]): 870000 M⁻¹ s⁻¹

The next lines start with the values.

- fold affinity decrease (His-tagged human TIGIT [10]): ~100 fold
- Kd (His-tagged human TIGIT [11]): 36 nM
- koff (His-tagged human TIGIT [11]): 0.0076 s⁻¹
- kon (His-tagged human TIGIT [11]): 210000 M⁻¹ s⁻¹
B4: reshaped TIGIT-3 antibody 3VH3 + 3VL1 (antibody, V domains shown)
VH: EVQLVESGGGLVQPGGSLRLSCAASGFTFSSYGMSWVRQAPGKGLELVATIKSDGGSTNLPDSVKGRFTISRDNSKNTLYLQMNSLRAEDTAVYYCVRGYFDYWGQGTTVTVSS
VL: DIQMTQSPSSLSASVGDRVTITCKASQDVKTAVAWYQQKPGKVPKLLIYWSSTRHTGVPSRFSGSGSGTDFTLTISSLQPEDVATYYCQQYYSTPYTFGGGTKVEIK
notes: as for B2

- Kd (His-tagged human TIGIT [9]): 0.36 nM
- koff (His-tagged human TIGIT [9]): 0.00016 s⁻¹
- kon (His-tagged human TIGIT [9]): 450000 M⁻¹ s⁻¹
B5: reshaped TIGIT-3 antibody 3VH3.M4 + 3VL (antibody, V domains shown)
VH: EVQLVESGGGLVQPGGSLRLSCAASGFTFSSYGMSWVRQAPGKGLELVATIKSSGGSTNLADSVKGRFTISRDNSKNTLYLQMNSLRAEDTAVYYCVRGYFDYWGQGTTVTVSS
VL: DIVMTQSHKFMSTSVGDRVSITCKASQDVKTAVAWYQQKPGQSPKLLIYWSSTRHTGVPDRFTGSRSLTDHTLTISSVQAEDLALYYCQQYYSTPYTFGGGTKLELK
notes: as for B2
